This note sets out measurements from article doi:10.1101/2025.10.27.684804.

Some results are limits rather than exact numbers.

In the assay the target is peptide containing the APP12 polyproline motif and a N-terminal TAMRA label. The assay is described as follows: fluorescence polarisation.

Broadly, the Kd is the constant that tells how readily two partners part at equilibrium. “naive fusion of bmTyr and Fyn-SH3 linked by a short glycine/serine linker (from UniProt P06241 84-141) (enzyme)” came in with a Kd of under 2000 nM.
